Measured values taken from article PMC8307404, “Crystal Structure-Guided Design of Bisubstrate Inhibitors and Photoluminescent Probes for Protein Kinases of the PIM Family” (Molecules, 2021).
Square brackets hold non-standard residues; d marks the D form. Peptide text beside a SMILES is read from it. * marks the point of attachment. X3 = O=C(CCCCCNCc1nc2c(sc3cc(Br)cnc32)c(=O)[nH]1)*

What was measured:
Assay in all cases: Kinase profiling (radiometric filter-binding)
Format in all cases: biochemical
[1] = molecular target: CDK9-Cyclin T1 (Homo sapiens, UniProt P50750); conditions: CDK9-Cyclin T1, 1 µM inhibitor; read-out: Residual activity, %
CDK9-Cyclin T1, sequence (P50750 whole entry): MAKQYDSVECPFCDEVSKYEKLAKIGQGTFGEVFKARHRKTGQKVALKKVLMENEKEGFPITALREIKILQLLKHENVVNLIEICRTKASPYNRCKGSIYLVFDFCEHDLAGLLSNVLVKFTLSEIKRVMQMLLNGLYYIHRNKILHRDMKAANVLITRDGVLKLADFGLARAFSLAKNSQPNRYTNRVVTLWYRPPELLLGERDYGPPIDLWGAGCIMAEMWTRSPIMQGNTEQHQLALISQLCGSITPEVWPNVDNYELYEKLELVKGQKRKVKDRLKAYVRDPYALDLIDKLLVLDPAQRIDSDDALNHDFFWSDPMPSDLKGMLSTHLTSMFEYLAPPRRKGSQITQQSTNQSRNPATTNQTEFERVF
CDK9-Cyclin T1, sequence (O60563 whole entry partner): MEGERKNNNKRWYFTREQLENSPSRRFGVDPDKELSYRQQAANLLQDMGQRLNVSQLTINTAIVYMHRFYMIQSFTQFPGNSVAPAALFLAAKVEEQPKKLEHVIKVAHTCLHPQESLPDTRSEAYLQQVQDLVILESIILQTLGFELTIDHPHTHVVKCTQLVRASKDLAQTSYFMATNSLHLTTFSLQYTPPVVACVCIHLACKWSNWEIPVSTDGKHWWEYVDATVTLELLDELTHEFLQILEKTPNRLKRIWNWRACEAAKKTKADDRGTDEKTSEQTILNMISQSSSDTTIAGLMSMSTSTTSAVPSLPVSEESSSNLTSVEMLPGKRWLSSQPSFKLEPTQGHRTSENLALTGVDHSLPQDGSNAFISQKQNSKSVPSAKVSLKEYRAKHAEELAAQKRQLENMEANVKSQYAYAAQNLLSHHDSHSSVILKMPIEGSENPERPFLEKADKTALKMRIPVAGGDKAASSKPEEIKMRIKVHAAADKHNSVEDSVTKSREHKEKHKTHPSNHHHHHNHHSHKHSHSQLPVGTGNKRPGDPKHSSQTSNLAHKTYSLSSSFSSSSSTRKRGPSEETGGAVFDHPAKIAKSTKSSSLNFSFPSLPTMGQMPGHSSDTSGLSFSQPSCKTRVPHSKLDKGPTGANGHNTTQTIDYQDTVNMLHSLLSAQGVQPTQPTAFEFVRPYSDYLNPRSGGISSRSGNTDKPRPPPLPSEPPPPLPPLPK
Summary of the method: (§1)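 Residual kinase activity, as a percentage of the inhibitor-free control, was measured at 1 µM final compound by radiometric filter binding. Each human enzyme was run with ATP no higher than its own KM.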

[2] = molecular target: CK1γ2 (Homo sapiens, UniProt P78368); conditions: CK1γ2, 1 µM inhibitor; read-out: Residual activity, %
CK1γ2, sequence (P78368 whole entry): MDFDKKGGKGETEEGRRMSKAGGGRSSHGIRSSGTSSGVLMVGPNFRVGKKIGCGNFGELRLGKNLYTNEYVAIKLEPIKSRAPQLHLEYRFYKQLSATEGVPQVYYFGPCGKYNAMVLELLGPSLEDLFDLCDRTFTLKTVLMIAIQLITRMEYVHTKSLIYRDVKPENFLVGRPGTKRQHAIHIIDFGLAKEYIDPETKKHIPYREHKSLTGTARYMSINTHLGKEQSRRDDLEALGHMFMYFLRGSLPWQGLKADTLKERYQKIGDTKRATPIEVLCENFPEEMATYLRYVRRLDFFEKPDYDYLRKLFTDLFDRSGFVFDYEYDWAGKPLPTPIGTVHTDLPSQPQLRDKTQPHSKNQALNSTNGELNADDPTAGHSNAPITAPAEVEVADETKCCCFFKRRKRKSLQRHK
Summary of the method: as §1

[3] = molecular target: EPH-A2 (Homo sapiens, UniProt P29317); conditions: EPH-A2, 1 µM inhibitor; read-out: Residual activity, %
EPH-A2, sequence (P29317 24-976): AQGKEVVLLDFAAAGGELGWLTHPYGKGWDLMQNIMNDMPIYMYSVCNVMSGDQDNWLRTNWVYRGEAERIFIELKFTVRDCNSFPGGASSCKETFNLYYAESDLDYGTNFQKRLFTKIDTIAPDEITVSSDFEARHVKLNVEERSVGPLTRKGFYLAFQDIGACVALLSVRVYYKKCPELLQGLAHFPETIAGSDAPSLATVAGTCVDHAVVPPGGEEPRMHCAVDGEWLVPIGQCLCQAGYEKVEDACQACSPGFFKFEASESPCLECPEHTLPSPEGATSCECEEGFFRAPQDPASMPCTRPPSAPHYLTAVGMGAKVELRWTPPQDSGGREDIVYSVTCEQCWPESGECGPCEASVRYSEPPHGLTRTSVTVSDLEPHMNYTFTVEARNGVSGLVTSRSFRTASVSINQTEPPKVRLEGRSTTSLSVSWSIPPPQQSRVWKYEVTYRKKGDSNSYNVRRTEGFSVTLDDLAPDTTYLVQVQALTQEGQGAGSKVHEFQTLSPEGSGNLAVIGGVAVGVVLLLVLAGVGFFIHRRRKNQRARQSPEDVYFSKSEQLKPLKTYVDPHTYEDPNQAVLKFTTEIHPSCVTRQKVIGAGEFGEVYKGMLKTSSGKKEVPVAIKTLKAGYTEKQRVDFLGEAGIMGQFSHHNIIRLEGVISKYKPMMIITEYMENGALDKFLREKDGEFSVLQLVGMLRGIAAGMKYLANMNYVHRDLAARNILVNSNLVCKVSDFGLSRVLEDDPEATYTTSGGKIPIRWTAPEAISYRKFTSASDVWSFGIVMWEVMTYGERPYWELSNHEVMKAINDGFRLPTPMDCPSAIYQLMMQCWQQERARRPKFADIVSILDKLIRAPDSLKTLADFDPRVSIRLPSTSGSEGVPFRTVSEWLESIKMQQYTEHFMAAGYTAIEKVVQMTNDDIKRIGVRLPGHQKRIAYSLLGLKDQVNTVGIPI
Summary of the method: as §1

[4] = molecular target: IRAK1 (Homo sapiens, UniProt P51617); conditions: IRAK1, 1 µM inhibitor; read-out: Residual activity, %
IRAK1, sequence (P51617 whole entry): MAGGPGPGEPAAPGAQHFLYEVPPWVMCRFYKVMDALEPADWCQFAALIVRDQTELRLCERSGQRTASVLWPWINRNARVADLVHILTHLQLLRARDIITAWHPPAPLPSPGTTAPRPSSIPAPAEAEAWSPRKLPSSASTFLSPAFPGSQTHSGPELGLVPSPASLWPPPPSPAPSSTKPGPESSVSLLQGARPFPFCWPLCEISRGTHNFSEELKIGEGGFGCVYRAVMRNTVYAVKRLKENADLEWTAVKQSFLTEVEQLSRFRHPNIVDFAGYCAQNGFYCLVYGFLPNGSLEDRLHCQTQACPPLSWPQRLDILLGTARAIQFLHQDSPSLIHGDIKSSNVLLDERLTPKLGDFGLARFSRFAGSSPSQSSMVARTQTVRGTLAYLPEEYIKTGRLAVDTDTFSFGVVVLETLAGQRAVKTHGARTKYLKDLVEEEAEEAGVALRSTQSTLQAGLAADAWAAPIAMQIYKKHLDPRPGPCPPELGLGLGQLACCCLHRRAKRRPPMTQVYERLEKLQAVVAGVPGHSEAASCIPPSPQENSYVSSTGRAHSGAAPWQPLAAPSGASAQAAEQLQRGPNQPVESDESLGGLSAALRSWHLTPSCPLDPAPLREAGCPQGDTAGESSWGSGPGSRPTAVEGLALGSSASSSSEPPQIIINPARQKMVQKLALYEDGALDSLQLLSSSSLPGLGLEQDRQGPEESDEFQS
Summary of the method: as §1

[5] = molecular target: MARK3 (Homo sapiens, UniProt P27448); conditions: MARK3, 1 µM inhibitor; read-out: Residual activity, %
MARK3, sequence (P27448 whole entry): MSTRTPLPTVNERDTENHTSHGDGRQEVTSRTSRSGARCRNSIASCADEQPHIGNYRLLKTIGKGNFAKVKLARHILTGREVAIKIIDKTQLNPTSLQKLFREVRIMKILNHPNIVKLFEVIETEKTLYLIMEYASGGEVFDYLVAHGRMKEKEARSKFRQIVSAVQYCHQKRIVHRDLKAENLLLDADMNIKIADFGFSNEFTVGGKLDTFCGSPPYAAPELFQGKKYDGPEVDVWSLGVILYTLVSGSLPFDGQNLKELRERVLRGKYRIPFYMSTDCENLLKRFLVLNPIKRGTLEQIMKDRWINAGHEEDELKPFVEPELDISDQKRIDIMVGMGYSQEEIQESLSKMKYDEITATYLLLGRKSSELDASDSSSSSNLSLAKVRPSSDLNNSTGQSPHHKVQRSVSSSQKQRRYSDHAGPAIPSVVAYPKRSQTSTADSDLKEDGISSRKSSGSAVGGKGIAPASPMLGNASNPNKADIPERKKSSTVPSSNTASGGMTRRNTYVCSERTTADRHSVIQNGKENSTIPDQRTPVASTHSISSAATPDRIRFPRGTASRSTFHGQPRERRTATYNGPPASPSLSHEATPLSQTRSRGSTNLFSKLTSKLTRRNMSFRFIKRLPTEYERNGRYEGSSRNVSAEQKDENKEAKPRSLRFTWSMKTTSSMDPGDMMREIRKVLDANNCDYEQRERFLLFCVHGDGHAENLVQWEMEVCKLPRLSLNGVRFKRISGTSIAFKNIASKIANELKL
Summary of the method: as §1

[6] = molecular target: T1, NUAK1 (Homo sapiens, UniProt O60285); conditions: NUAK1, 1 µM inhibitor; read-out: Residual activity, %
T1 sequence (O60285 1-661): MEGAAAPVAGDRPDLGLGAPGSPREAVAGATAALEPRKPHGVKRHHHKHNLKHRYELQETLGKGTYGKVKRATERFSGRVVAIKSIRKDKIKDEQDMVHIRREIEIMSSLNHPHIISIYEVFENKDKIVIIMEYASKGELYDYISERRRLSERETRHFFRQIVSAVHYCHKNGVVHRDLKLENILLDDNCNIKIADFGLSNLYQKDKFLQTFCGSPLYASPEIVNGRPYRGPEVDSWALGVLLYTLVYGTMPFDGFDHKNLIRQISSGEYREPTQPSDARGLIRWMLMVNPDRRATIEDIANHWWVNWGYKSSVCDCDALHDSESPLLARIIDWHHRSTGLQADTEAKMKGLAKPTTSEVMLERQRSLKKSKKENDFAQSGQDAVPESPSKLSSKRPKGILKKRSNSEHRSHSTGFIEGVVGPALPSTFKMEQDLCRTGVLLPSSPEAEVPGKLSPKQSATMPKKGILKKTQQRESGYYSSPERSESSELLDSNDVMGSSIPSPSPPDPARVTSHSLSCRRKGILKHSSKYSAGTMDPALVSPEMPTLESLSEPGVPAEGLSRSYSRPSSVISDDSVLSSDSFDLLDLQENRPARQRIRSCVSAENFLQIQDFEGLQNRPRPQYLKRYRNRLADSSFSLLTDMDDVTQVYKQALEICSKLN
Summary of the method: as §1

[7] = molecular target: PKA (Homo sapiens, UniProt P17612); conditions: 1 µM inhibitor, read-out: Residual activity, %
Summary of the method: as §1

[8] = molecular target: T2, SGK1 (Homo sapiens, UniProt O00141); conditions: SGK1, 1 µM inhibitor; read-out: Residual activity, %
T2 sequence (O00141 1-431): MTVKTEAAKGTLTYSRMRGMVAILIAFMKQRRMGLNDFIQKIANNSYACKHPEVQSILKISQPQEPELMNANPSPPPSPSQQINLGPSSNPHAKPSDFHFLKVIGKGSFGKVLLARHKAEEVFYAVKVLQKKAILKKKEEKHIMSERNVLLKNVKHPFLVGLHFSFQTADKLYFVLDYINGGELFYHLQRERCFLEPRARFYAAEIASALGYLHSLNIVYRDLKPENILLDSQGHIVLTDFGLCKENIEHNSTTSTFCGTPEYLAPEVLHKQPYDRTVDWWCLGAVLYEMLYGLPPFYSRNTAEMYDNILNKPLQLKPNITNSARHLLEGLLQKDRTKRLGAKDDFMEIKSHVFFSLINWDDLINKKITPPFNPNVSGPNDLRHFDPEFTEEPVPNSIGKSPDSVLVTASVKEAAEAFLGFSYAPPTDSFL
Summary of the method: as §1

[9] = molecular target: T3, ZAP70 (Homo sapiens, UniProt P43403); conditions: ZAP70, 1 µM inhibitor; read-out: Residual activity, %
T3 sequence (P43403 1-619): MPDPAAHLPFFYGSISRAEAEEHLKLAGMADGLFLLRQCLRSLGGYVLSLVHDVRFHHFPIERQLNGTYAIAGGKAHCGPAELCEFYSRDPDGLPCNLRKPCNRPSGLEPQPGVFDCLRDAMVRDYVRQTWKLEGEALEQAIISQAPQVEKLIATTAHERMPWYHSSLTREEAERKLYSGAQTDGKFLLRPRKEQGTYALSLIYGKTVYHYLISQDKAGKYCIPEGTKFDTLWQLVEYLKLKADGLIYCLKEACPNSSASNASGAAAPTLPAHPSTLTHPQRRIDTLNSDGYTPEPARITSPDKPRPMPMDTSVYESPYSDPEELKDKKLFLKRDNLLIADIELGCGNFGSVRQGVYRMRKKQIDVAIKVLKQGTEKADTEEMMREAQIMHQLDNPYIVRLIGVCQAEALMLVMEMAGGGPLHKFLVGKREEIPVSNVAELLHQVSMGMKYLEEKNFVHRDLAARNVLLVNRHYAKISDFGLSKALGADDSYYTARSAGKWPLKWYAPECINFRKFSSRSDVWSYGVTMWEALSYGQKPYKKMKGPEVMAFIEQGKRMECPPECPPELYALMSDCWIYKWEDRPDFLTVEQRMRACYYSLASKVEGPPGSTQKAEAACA
Summary of the method: as §1

Structure (SMILES) | remaining activity at 1 µM [1] | remaining activity at 1 µM [2] | remaining activity at 1 µM [3] | remaining activity at 1 µM [4] | remaining activity at 1 µM [5] | remaining activity at 1 µM [6] | remaining activity at 1 µM [7] | remaining activity at 1 µM [8] | remaining activity at 1 µM [9]
N=C(N)NCCC[C@@H](NC(=O)CNC(=O)[C@@H](CCCNC(=N)N)NC(=O)[C@@H](CCCNC(=N)N)NC(=O)CCCCCCCNCc1nc2c(sc3cc(Br)cnc32)c(=O)[nH]1)C(=O)N[C@H](CCCCN)C(N)=O [Compound 1, BPTP-Aoc-(D-Arg)2-Gly-D-Arg-D-Lys-NH2] | 110 ± 10% | 117 ± 3% | 116 ± 5% | 131 ± 17% | 100 ± 6% | 95 ± 14% | 100 ± 9% | 110 ± 19% | 95 ± 21%
N=C(N)NCCC[C@@H](NC(=O)CCCCCNCc1nc2c(sc3cc(Br)cnc32)c(=O)[nH]1)C(=O)N[C@H](CCCNC(=N)N)C(=O)N[C@H](CCCNC(=N)N)C(=O)N[C@H](CCCNC(=N)N)C(=O)N[C@H](CCCNC(=N)N)C(=O)N[C@H](CCCNC(=N)N)C(=O)N[C@H](CCCCN)C(N)=O [ARC-3126, BPTP-Ahx-(D-Arg)6-D-Lys-NH2] (X3-[dR][dR][dR][dR][dR][dR][dK]-NH2) | 104 ± 3% | 66 ± 10% | 113 ± 13% | 120 ± 2% | 112 ± 17% | 47 ± 7% | 97% | 75 ± 9% | 83 ± 30%
N=C(N)NCCC[C@@H](NC(=O)CCCCCNC(=O)Cn1cnc2c(I)c(I)c(I)c(I)c21)C(=O)N[C@H](CCCNC(=N)N)C(=O)N[C@H](CCCNC(=N)N)C(=O)N[C@H](CCCNC(=N)N)C(=O)N[C@H](CCCNC(=N)N)C(=O)N[C@H](CCCNC(=N)N)C(=O)N[C@H](CCCCN)C(N)=O [ARC-3125, TIBI-CH2-C(=O)-Ahx-(D-Arg)6-D-Lys-NH2] | 55 ± 1% | 45 ± 5% | 108 ± 2% | 16 ± 3% | 72 ± 1% | 7 ± 15% | 7 ± 3% | 9 ± 5% | 105 ± 8%
N=C(N)NCCC[C@@H](NC(=O)CNC(=O)[C@@H](CCCNC(=N)N)NC(=O)[C@@H](CCCNC(=N)N)NC(=O)CCCCCCCNCc1nc2c(sc3ccc(Br)cc32)c(=O)[nH]1)C(=O)N[C@H](CCCCN)C(N)=O [Compound 2, BBTP-Aoc-(D-Arg)2-Gly-D-Arg-D-Lys-NH2] | 101 ± 20% | 116 ± 10% | 113 ± 10% | 134 ± 21% | 102 ± 7% | 102 ± 14% | 85 ± 6% | 89 ± 3% | 87 ± 7%
N=C(N)NCCC[C@@H](NC(=O)CNC(=O)[C@@H](CCCNC(=N)N)NC(=O)[C@@H](CCCNC(=N)N)NC(=O)Cn1cc(CNCc2nc3c(sc4ccc(Br)cc43)c(=O)[nH]2)nn1)C(=O)N[C@H](CCCCN)C(N)=O [Compound 3, BBTP-Amt-(D-Arg)2-Gly-D-Arg-D-Lys-NH2] | 90 ± 18% | 88 ± 1% | 132 ± 6% | 113 ± 11% | 100 ± 8% | 74 ± 6% | 82 ± 10% | 95 ± 4% | 53 ± 14%
